Test results as given in patent publication US20200308301A1 (Novartis, published 2020).

B1: IDT11 (antibody, human IgG1, kappa, V domains shown)
VH: QVQLLESGGGLVQPGGSLRLSCAASGFTFSDYAMSWVRQAPGKGLEWVSVIDYSSSNTYYADSVKGRFTISRDNSKNTLYLQMNSLRAEDTAVYYCAREGYSYRSIRFDYWGQGTLVTVSS
VL: DIQMTQSPSSLSASVGDRVTITCRASQSISSNLNWYQQKPGKAPKLLIYAASNLQSGVPSRFSGSGSGTDFTLTISSLQPEDFATYYCLQFDHTPFTFGQGTKVEIKR
notes: also called anti-NOV1401 IgG IDT11; full length IgG format for IDT1
B3: NOV1401 (antibody, human IgG1, lambda, V domains shown)
VH: QVQLLESGGGLVQPGGSLRLSCAASGFTFSTAAMSWVRQAPGKGLEWVSGISGSGSSTYYADSVKGRFTISRDNSKNTLYLQMNSLRAEDTAVYYCARELSYLYSGYYFDYWGQGTLVTVSS
VL: QSVLTQPPSASGTPGQRVTISCSGSSSNIGSNDVSWYQQLPGTAPKLLIYKNYNRPSGVPDRFSGSKSGTSASLAISGLQSEDEADYYCSAWDQRQFDVVFGGGTKLTVLG
notes: It was amine-coupled to the chip in SPR, and used soluble and biotinylated in SET; also called anti-FXI/FXIa antibody NOV1401; anti-Factor XI/FXIa antibody NOV1401
B4: IDT3 (Fab, V domains shown)
VH: QVQLVESGGGLVKPGGSLRLSCAASGFTFQSAAVHWVRQAPGKGLEWVGRIKSKADGGTTDYAAPVKGRFTISRDDSKNTLYLQMNSLKTEDTAVYYCARDSPSISSYSIPYFSGMDVWGQGTLVTVSS
VL: DIQMTQSPSSLSASVGDRVTITCRASQGIRAWLNWYQQKPGKAPKLLIYAASSLQSGVPSRFSGSGSGTDFTLTISSLQPEDFATYYCHQYITHPPTFGQGTKVEIKR
notes: Fab; also called anti-NOV1401 Fab IDT3
B5: IDT12 (antibody, human IgG1, kappa, V domains shown)
VH: QVQLVESGGGLVKPGGSLRLSCAASGFTFSSAAVHWVRQAPGKGLEWVGRIKSKADGGTTDYAAPVKGRFTISRDDSKNTLYLQMNSLKTEDTAVYYCARDSPSISSYSIPYFSGMDVWGQGTLVTVSS
VL: DIQMTQSPSSLSASVGDRVTITCRASQGIRAWLNWYQQKPGKAPKLLIYAASSLQSGVPSRFSGSGSGTDFTLTISSLQPEDFATYYCHQYITHPPTFGQGTKVEIKR
notes: also called anti-NOV1401 IgG IDT12; full length IgG format for IDT2

Assays:
[1] = target: B3; experiment: Solution equilibrium titration (SET), IgG, 1:1 fit, average
Method: (§1) 14 serial (2×) dilutions of NOV1401 were prepared in sample buffer (PBS pH 7.4 containing 0.5% (w/v) BSA and 0.02% Tween 20) and a constant concentration of the anti-NOV1401 Fab or IgG was added to each NOV1401 concentration ranging from 40 pM to 240 pM. Optimal constant anti-NOV1401 Fab or IgG concentrations and optimal starting concentrations for NOV1401 dilution series were determined in pilot experiments.
(§2) After incubation and three times washing with PBST (PBS containing 0.05% Tween 20) 30 μl/well of the NOV1401/anti-NOV1401 Fab or IgG preparation was transferred from the polypropylene MTP to the NOV1401-coated SA plate and incubated for 30 min at RT on a MTP shaker. After three additional wash steps, 30 μl of 0.5 μg/ml detection antibody (Goat anti-human Kappa LC-HRP, BETHYL # A80-115P) diluted in sample buffer was added to each well and incubated for 1 h at RT with shaking. […] Electrochemiluminescence (ECL) signals were generated and detected immediately with a luminescence imager (SpectraMax M5, Molecular Devices, LLC).
Average ECL-signals were calculated from duplicate measurements within each assay. […] KD values were determined by fitting the plot with the following non-linear curve fitting model for 1:1 binding according to Haenel et al 2005: […]

[2] = target: B3; experiment: cell-based or functional assay
[3] = target: B3; experiment: cell-based or functional assay; remark: listed apart in the source
[4] = target: B3; experiment: Solution equilibrium titration (SET), 1:1 fit, average
Method: as §1
After incubation and three times washing with PBST (PBS containing 0.05% Tween 20) 30 μl/well of the NOV1401/anti-NOV1401 Fab or IgG preparation was transferred from the polypropylene MTP to the NOV1401-coated SA plate and incubated for 30 min at RT on a MTP shaker. After three additional wash steps, 30 μl of 0.5 μg/ml detection antibody (Goat anti-human Kappa LC-HRP, BETHYL # A80-115P) diluted in sample buffer was added to each well and incubated for 1 h at RT with shaking. After washing the plate again three times, 30 μl of detection reagent (LumiGLO Peroxidase Chemiluminescent Substrate, KPL #54-61-01) was added to each well. Electrochemiluminescence (ECL) signals were generated and detected immediately with a luminescence imager (SpectraMax M5, Molecular Devices, LLC).
Average ECL-signals were calculated from duplicate measurements within each assay. Data were baseline adjusted by subtracting the lowest value from all data points and plotted against the corresponding antigen concentration. KD values were determined by fitting the plot with the following non-linear curve fitting model for 1:1 binding according to Haenel et al 2005: […]

[5] = target: B3; experiment: SPR (ProteOn XPR36), NOV1401 immobilized, Fab as analyte, 1:1 Langmuir fit, average
Method: SPR binding experiments were performed on a ProteOn XPR36 instrument (Bio-Rad Laboratories, Inc.) in PBS/T buffer (50 mM phosphate, 150 mM NaCl, pH 7.4, 0.005% v/v Tween-20) at 25° C. NOV1401 (‘Ligand’) was immobilized onto an activated ProteOn GLC sensor chip (Bio-Rad Laboratories, Inc.) using standard amine coupling procedures as described by the manufacturer. Briefly, NOV1401 was injected at a concentration of 10 μg/ml in 20 mM sodium acetate, pH 5.0 and at a flow rate of 30 μl/min for 10 min. Unreacted groups were blocked by injecting 1 M ethanolamine.
For kinetic studies anti-NOV1401 Fabs (‘Analytes’) were diluted in PBS/T buffer to generate a dilution series with concentrations ranging from 0.125-4 nM. Fabs were injected onto surfaces with immobilized NOV1401 at a flow rate of 100 μL/min and sensorgrams were recorded for association and dissociation times of 220 s and 1800 s, respectively. Blank surfaces were used for background corrections. There was no need to regenerate surfaces since the ProteOn protein interaction array system allows to run up to six binding experiments on an identical surface in parallel.
Data processing and analysis including kon, koff, and KD determination were performed with the ProteOn Manager™ software version 3.1.0.6.

[6] = target: T1, Human plasma-derived FXIa (human, UniProt P03951 19-625); experiment: SPR, FXIa immobilized on GLC chip
T1 construct: also called Factor XIa
Method: SPR experiments were performed in principle as described in Example 2 with the following changes. Human plasma-derived FXIa was used as ligand and immobilized on an activated ProteOn GLC sensor chip (Bio-Rad Laboratories, Inc.) using standard amine coupling procedures as described and by injecting FXIa at a concentration of 10 μg/ml in 20 mM sodium acetate, pH 5.0 and at a flow rate of 30 μl/min for 10 min.
For binding competition studies NOV1401 and three mixture of NOV1401 with anti-NOV1401 Fab at molar ratios of 1:1, 1:2, and 1:10 were prepared in PBS/T buffer and injected in simultaneously onto surfaces with immobilized FXI at a flow rate of 100 μL/min. Sensorgrams were recorded for association and dissociation times of 220 s and 1800 s, respectively. Blank surfaces were used for background corrections.

[7] = target: T2, IDT4; experiment: SET: soluble NOV1401 titrated against constant IDT4 Fab; competitor is plate-bound biotinylated NOV1401; free Fab read as RLU
T2 construct: Fab; also called anti-NOV1401 Fab IDT4
Method: as §1
(§3) 30 µl/well of each dilution mix was distributed in duplicates to a 384-well polypropylene Eppendorf microplate (MTP). Sample buffer served as negative control and a sample containing no antigen as positive control (Bmax). The plate was sealed and incubated overnight at RT on a plate shaker.
as §2

[8] = target: T3, IDT8; experiment: SET: soluble NOV1401 titrated against constant IDT8 Fab; competitor is plate-bound biotinylated NOV1401; free Fab read as RLU
T3 construct: Fab; also called anti-NOV1401 Fab IDT8
Method: as §1, §3, §2

[9] = target: B4; experiment: SET: soluble NOV1401 titrated against constant IDT3 Fab; competitor is plate-bound biotinylated NOV1401; free Fab read as RLU
Method: as §1, §3, §2

[10] = target: Human FXI in normal human plasma (human, UniProt P03951 19-625); experiment: cell-based or functional assay
[11] = target: B1; experiment: SET: soluble antigen (NOV1401 by the legend and Example 2, axis labelled MAA868) titrated against constant IDT11 IgG; competitor is plate-bound biotinylated NOV1401; free IgG read as RLU
Method: as §1, §3, §2

[12] = target: T4, IDT10; experiment: SET: soluble NOV1401 titrated against constant IDT10 Fab; competitor is plate-bound biotinylated NOV1401; free Fab read as RLU
T4 construct: Fab; also called anti-NOV1401 Fab IDT10
Method: as §1, §3, §2

[13] = target: T5, IDT5; experiment: SET: soluble NOV1401 titrated against constant IDT5 Fab; competitor is plate-bound biotinylated NOV1401; free Fab read as RLU
T5 construct: Fab; also called anti-NOV1401 Fab IDT5
Method: as §1, §3, §2

[14] = target: T6, IDT7; experiment: SET: soluble NOV1401 titrated against constant IDT7 Fab; competitor is plate-bound biotinylated NOV1401; free Fab read as RLU
T6 construct: Fab; also called anti-NOV1401 Fab IDT7
Method: as §1, §3, §2

[15] = target: T7, IDT9; experiment: SET: soluble NOV1401 titrated against constant IDT9 Fab; competitor is plate-bound biotinylated NOV1401; free Fab read as RLU
T7 construct: Fab; also called anti-NOV1401 Fab IDT9
Method: as §1, §3, §2

[16] = target: B5; experiment: SET: soluble antigen (NOV1401 by the legend and Example 2, axis labelled MAA868) titrated against constant IDT12 IgG; competitor is plate-bound biotinylated NOV1401; free IgG read as RLU
Method: as §1, §3, §2

Binder: B1
- Kd [1]: 0.0007 nM
- TGA percentage reversal, NOV1401/anti NOV1401 ratio 1/1 (n/n) [2]: 50%
- TGA percentage reversal, NOV1401/anti NOV1401 ratio 1/3 (n/n) [2]: 59%
- TGA percentage reversal, NOV1401/anti NOV1401 ratio 1/10 (n/n) [2]: 67%
- aPTT percentage reversal, NOV1401/anti NOV1401 ratio 1/1 (n/n) [3]: 19%
- aPTT percentage reversal, NOV1401/anti NOV1401 ratio 1/3 (n/n) [3]: 55%
- aPTT percentage reversal, NOV1401/anti NOV1401 ratio 1/10 (n/n) [3]: 57%

B2: IDT1 (Fab, V domains shown)
VH: QVQLLESGGGLVQPGGSLRLSCAASGFTFSDYAMSWVRQAPGKGLEWVSVIDYSSSNTYYADSVKGRFTISRDNSKNTLYLQMNSLRAEDTAVYYCAREGYSYRSIRFDYWGQGTLVTVSS
VL: DIQMTQSPSSLSASVGDRVTITCRASQSISSNLNWYQQKPGKAPKLLIYAASNLQSGVPSRFSGSGSGTDFTLTISSLQPEDFATYYCLQFDHTPFTFGQGTKVEIKR
notes: Fab (heavy chain is VH-CH1); also called anti-NOV1401 Fab IDT1
- Kd [4]: 0.11 nM
- Kd [5]: 0.44 nM
- TGA percentage reversal, NOV1401/anti NOV1401 ratio 1/1 (n/n) [2]: 49%
- TGA percentage reversal, NOV1401/anti NOV1401 ratio 1/3 (n/n) [2]: 55%
- TGA percentage reversal, NOV1401/anti NOV1401 ratio 1/10 (n/n) [2]: 55%
- aPTT percentage reversal, NOV1401/anti NOV1401 ratio 1/1 (n/n) [3]: 12%
- aPTT percentage reversal, NOV1401/anti NOV1401 ratio 1/3 (n/n) [3]: 45%
- aPTT percentage reversal, NOV1401/anti NOV1401 ratio 1/10 (n/n) [3]: 64%
- binding result [6]: no binding

Binder: B3
- binding result [7]: binds
- binding result [8]: binds
- binding result [9]: binds
- TGA in human plasma: IC50 of NOV1401 for reduction of peak thrombin [10]: 50 nM
- IC50 (read off the curve) [11]: ~0.008 nM
- binding result [12]: binds
- binding result [13]: binds
- binding result [14]: binds
- binding result [15]: binds
- IC50 (read off the curve) [16]: ~0.01 nM

Binder: B4
- Kd [4]: 0.1 nM
- Kd [5]: 0.24 nM
- TGA percentage reversal, NOV1401/anti NOV1401 ratio 1/1 (n/n) [2]: 31%
- TGA percentage reversal, NOV1401/anti NOV1401 ratio 1/3 (n/n) [2]: 47%
- TGA percentage reversal, NOV1401/anti NOV1401 ratio 1/10 (n/n) [2]: 67%
- aPTT percentage reversal, NOV1401/anti NOV1401 ratio 1/1 (n/n) [3]: 9%
- aPTT percentage reversal, NOV1401/anti NOV1401 ratio 1/3 (n/n) [3]: 35%
- aPTT percentage reversal, NOV1401/anti NOV1401 ratio 1/10 (n/n) [3]: 58%
- binding result [6]: no binding

Binder: B5
- Kd [1]: 0.0051 nM
- TGA percentage reversal, NOV1401/anti NOV1401 ratio 1/1 (n/n) [2]: 60%
- TGA percentage reversal, NOV1401/anti NOV1401 ratio 1/3 (n/n) [2]: 64%
- TGA percentage reversal, NOV1401/anti NOV1401 ratio 1/10 (n/n) [2]: 62%
- aPTT percentage reversal, NOV1401/anti NOV1401 ratio 1/1 (n/n) [3]: 9%
- aPTT percentage reversal, NOV1401/anti NOV1401 ratio 1/3 (n/n) [3]: 51%
- aPTT percentage reversal, NOV1401/anti NOV1401 ratio 1/10 (n/n) [3]: 61%
